Molecular target: putative EMR2 ligand
Assay: flow cytometry on human monocyte-derived macrophages; abolished by EGTA

## biotinylated soluble EMR2(EGF-1,2,3,4,5) protein-fluorescent bead complex (from UniProt Q9UHX3 24-260) (receptor)
  percent of cells bound: 45 to 50%

— patent publication US20030148951A1
